This is an account of results in article PMC6555819, “Comprehensive study of nuclear receptor DNA binding provides a revised framework for understanding receptor specificity”.

One data set deals with RXRa (Homo sapiens, UniProt P19793). Put plainly: no ligand; PBM; 180 nM; PBS pH 7.4, 2% milk, 0.02% Triton X-100, 1 mM DTT, BSA, 0.4 mg/ml salmon testes DNA. The note with it: tags: His cleaved; chain copies: 2; label: surface-attached array probe.
In the next data set the target is VDR:RXRa (Homo sapiens, UniProt P11473;P19793 full;full). Put plainly: no ligand; PBM; 270 nM : 90 nM RXRa; PBS pH 7.4, 2% milk, 0.02% Triton X-100, 1 mM DTT, BSA, 0.4 mg/ml salmon testes DNA. As to conditions: tags: His kept;His cleaved; copies: 1;1; label: surface-attached array probe. In short, it runs like this:
(§1)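 Binding z-scores were set against random background probes. The data came from custom Agilent 4×180K protein-binding microarrays carrying double-stranded probes with 34-nt variable regions, incubated 1 h with ligand-free nuclear receptor dimers. Partner-specific antibodies detected binding, and scanned fluorescence was regression-normalized.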

In a further data set the target is RARa:RXRa (Homo sapiens, UniProt P10276;P19793 full;full). The description is as above. As to conditions: tags: His kept;His cleaved; copies: 1;1; label: surface-attached array probe. In short, it runs like this:
as §1

In the next data set the target is PPARa:RXRa (Homo sapiens, UniProt Q07869;P19793 full;full). The data set is described as above. As to conditions: tags: GST kept;His cleaved; copies: 1;1; label: surface-attached array probe. In short, it runs like this: as §1
For a further data set, the target named is RARb:RXRa (Homo sapiens, UniProt P10826;P19793 full;full). The description is as above. As to conditions: tags: His kept;His cleaved; copies: 1;1; label: surface-attached array probe. The gist of the method: as §1
Chain of RARb:RXRa (P10826 whole entry, chain 1 of 2): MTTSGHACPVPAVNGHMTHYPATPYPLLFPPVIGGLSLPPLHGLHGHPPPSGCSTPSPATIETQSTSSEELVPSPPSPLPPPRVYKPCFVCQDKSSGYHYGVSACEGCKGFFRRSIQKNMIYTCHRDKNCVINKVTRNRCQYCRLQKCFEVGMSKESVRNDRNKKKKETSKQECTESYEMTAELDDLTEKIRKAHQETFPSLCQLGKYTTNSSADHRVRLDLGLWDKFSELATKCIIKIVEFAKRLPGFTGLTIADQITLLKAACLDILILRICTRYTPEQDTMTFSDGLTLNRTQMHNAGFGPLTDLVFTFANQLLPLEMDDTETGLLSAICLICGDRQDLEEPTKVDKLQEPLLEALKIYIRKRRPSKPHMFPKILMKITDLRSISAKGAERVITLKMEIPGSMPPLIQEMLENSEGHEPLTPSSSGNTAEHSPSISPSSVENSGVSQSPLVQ
Chain of RARb:RXRa (P19793 whole entry, chain 2 of 2): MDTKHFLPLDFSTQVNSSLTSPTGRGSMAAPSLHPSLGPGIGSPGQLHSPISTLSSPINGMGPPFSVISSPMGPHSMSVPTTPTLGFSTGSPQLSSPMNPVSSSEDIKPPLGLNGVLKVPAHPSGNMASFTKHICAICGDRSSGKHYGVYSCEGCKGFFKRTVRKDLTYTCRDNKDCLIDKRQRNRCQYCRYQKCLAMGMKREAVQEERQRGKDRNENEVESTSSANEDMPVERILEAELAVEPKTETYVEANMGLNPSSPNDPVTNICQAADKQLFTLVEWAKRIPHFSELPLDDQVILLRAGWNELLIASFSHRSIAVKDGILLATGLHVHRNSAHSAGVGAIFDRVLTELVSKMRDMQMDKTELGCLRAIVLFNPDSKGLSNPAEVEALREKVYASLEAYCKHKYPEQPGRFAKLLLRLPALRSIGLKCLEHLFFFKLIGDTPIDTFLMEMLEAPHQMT
The next data set deals with PXR:RXRa (Homo sapiens, UniProt O75469;P19793 full;full). Described as above. The note with it: tags: His kept;His cleaved; copies: 1;1; label: surface-attached array probe. In short, it runs like this:
as §1

The target in another data set is LXRa:RXRa (Homo sapiens, UniProt Q13133;P19793 full;full). The data set is described as above. As to conditions: tags: His kept;His cleaved; copies: 1;1; label: surface-attached array probe. In short, it runs like this: as §1
A further data set addresses RARg:RXRa (Homo sapiens, UniProt P13631;P19793 full;full). Described as above. As to conditions: tags: His kept;His cleaved; copies: 1;1; label: surface-attached array probe. In short, it runs like this: as §1
The next data set deals with LXRb:RXRa (Homo sapiens, UniProt P55055;P19793 full;full). The data set is described as above. As to conditions: tags: His kept;His cleaved; copies: 1;1; label: surface-attached array probe. In short, it runs like this: as §1
Chain of LXRb:RXRa (P55055 whole entry, chain 1 of 2): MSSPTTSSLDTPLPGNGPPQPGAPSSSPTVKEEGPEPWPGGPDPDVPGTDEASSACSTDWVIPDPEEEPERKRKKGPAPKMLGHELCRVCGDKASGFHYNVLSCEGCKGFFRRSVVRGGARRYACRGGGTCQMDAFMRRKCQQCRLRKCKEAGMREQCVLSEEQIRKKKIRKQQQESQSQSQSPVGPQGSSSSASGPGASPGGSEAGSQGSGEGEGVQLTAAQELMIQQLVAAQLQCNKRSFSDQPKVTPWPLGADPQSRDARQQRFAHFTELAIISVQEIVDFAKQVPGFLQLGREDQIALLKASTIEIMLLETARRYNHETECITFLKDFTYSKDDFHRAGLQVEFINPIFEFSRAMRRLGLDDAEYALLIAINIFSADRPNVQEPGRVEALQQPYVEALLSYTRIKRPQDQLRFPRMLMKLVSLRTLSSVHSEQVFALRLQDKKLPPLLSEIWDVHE
Chain of LXRb:RXRa (P19793 whole entry, chain 2 of 2): as the sequence (P19793 whole entry, chain 2 of 2) above
In the next data set the target is PPARg:RXRa (Homo sapiens, UniProt P37231;P19793 full;full). Put plainly: no ligand; PBM; 180 nM : 90 nM RXRa; PBS pH 7.4, 2% milk, 0.02% Triton X-100, 1 mM DTT, BSA, 0.4 mg/ml salmon testes DNA. The note with it: tags: His kept;His cleaved; copies: 1;1; label: surface-attached array probe.
Chain of PPARg:RXRa (P37231 29-505, chain 1 of 2): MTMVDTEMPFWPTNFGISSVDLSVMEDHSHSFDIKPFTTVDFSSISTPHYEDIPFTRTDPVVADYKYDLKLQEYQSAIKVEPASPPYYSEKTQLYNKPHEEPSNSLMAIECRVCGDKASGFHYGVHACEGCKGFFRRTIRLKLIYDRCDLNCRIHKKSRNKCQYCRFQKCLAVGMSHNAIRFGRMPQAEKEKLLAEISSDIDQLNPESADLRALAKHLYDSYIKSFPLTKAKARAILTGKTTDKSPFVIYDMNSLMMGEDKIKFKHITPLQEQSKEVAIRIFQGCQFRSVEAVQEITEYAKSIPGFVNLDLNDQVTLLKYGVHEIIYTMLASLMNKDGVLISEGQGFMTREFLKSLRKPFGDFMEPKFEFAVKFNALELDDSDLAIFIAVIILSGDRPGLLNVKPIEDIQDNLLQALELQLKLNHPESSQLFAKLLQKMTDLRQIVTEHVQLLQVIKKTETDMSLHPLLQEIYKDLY
Chain of PPARg:RXRa (P19793 whole entry, chain 2 of 2): as the sequence (P19793 whole entry, chain 2 of 2) above
The target of the next data set is THRa:RXRa (Homo sapiens, UniProt P10827;P19793 full;full). Put plainly: no ligand; PBM; 90 nM : 90 nM RXRa; PBS pH 7.4, 2% milk, 0.02% Triton X-100, 1 mM DTT, BSA, 0.4 mg/ml salmon testes DNA. The note with it: tags: His kept;His cleaved; copies: 1;1; label: surface-attached array probe.
The target of the next data set is FXR:RXRa (Homo sapiens, UniProt Q96RI1;P19793 full;full). Put plainly: no ligand; PBM; 270 nM : 90 nM RXRa; PBS pH 7.4, 2% milk, 0.02% Triton X-100, 1 mM DTT, BSA, 0.4 mg/ml salmon testes DNA. As to conditions: tags: His kept;His cleaved; copies: 1;1; label: surface-attached array probe. The gist of the method:
as §1

Chain of RARa:RXRa (P10276 whole entry, chain 1 of 2): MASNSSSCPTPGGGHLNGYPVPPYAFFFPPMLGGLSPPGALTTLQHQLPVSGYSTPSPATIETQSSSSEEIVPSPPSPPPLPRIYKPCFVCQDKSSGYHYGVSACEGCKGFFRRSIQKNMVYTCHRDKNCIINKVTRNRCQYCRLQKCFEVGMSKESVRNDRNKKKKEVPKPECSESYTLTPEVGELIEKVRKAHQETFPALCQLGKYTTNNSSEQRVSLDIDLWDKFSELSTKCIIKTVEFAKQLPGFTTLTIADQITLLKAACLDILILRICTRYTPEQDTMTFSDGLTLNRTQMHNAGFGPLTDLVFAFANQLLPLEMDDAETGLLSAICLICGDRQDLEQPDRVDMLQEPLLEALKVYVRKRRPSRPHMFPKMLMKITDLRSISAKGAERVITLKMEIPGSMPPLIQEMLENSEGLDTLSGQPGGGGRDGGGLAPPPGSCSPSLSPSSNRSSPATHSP
Chain of RARa:RXRa (P19793 whole entry, chain 2 of 2): as the sequence (P19793 whole entry, chain 2 of 2) above
Chain of PXR:RXRa (O75469 whole entry, chain 1 of 2): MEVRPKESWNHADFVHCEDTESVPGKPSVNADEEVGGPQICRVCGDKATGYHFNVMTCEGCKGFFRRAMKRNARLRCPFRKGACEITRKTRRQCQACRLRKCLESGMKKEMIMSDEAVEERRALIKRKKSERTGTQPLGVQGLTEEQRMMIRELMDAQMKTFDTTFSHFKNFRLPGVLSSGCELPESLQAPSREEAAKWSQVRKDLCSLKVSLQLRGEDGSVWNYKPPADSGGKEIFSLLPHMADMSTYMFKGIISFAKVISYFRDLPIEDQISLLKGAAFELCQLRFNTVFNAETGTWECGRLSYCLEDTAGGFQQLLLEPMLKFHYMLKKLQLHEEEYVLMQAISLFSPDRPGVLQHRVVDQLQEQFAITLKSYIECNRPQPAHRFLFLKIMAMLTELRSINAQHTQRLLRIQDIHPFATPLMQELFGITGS
Chain of PXR:RXRa (P19793 whole entry, chain 2 of 2): as the sequence (P19793 whole entry, chain 2 of 2) above

B1: NRC3_wobSeed28_DR1_C12T_o1 (dsDNA)
DNA 1: GCCCTACTGGGTCAAAGGTCATTGATTCCAATGCTCGCGATTGACAGCGTAGAATGAAGG
DNA 2: CCTTCATTCTACGCTGTCAATCGCGAGCATTGGAATCAATGACCTTTGACCCAGTAGGGC
B1: the binding signal is 9.56 PBM z-score against 500 random probes with RXRa; 6.8 PBM z-score against 500 random probes with VDR:RXRa; 8.75 PBM z-score against 500 random probes with RARa:RXRa; 7.41 PBM z-score against 500 random probes in the data set with PPARa:RXRa; 5.54 PBM z-score against 500 random probes with RARb:RXRa; 7.26 PBM z-score against 500 random probes with PXR:RXRa. Besides, the binding signal was 6.6 PBM z-score against 500 random probes with LXRa:RXRa, 8.01 PBM z-score against 500 random probes in the data set with RARg:RXRa, 6.34 PBM z-score against 500 random probes with LXRb:RXRa and 13.5 PBM z-score against 500 random probes with PPARg:RXRa.

B2: NRC3_wobSeed97_DR4_A17T_o1 (dsDNA)
DNA 1: GCCAAACTAGGTCACGTAAGGTCAAAGTCGAATGACGCGATTGACAGCGTAGAATGAAGG
DNA 2: CCTTCATTCTACGCTGTCAATCGCGTCATTCGACTTTGACCTTACGTGACCTAGTTTGGC
In the case of B2, in the data set with THRa:RXRa, the binding signal was 5.77 PBM z-score against 500 random probes.

B3: NRC3_wobSeed97_DR4_A17C_o1 (dsDNA)
DNA 1: GCCAAACTAGGTCACGCAAGGTCAAAGTCGAATGACGCGATTGACAGCGTAGAATGAAGG
DNA 2: CCTTCATTCTACGCTGTCAATCGCGTCATTCGACTTTGACCTTGCGTGACCTAGTTTGGC
On to B3, for which the binding signal in the data set with THRa:RXRa is 5.55 PBM z-score against 500 random probes.

B4: NRC3_wobSeed106_DR4_G15T_o1 (dsDNA)
DNA 1: GCCTCGAAAGGTCGTTTGAGGTGAGTATACGGATAAGCGATTGACAGCGTAGAATGAAGG
DNA 2: CCTTCATTCTACGCTGTCAATCGCTTATCCGTATACTCACCTCAAACGACCTTTCGAGGC
On to B4, for which, in the data set with THRa:RXRa, the binding signal is 5.63 PBM z-score against 500 random probes.

B5: NRC3_wobSeed106_DR4_T4G_o1 (dsDNA)
DNA 1: GCCGCGAAAGGTCGGTTGAGGTGAGTATACGGATAAGCGATTGACAGCGTAGAATGAAGG
DNA 2: CCTTCATTCTACGCTGTCAATCGCTTATCCGTATACTCACCTCAACCGACCTTTCGCGGC
In the case of B5, the binding signal in the data set with THRa:RXRa was 5.31 PBM z-score against 500 random probes.

B6: NRC3_wobSeed106_DR4_G15A_o1 (dsDNA)
DNA 1: GCCTCGAAAGGTCGATTGAGGTGAGTATACGGATAAGCGATTGACAGCGTAGAATGAAGG
DNA 2: CCTTCATTCTACGCTGTCAATCGCTTATCCGTATACTCACCTCAATCGACCTTTCGAGGC
Take B6: the binding signal with THRa:RXRa is 5.36 PBM z-score against 500 random probes.

B7: NRC3_wobSeed53_DR2_C8G_o1 (dsDNA)
DNA 1: GCCCTTAGGGGTCACGAGGTTATAGCACGACGAGCGGCGATTGACAGCGTAGAATGAAGG
DNA 2: CCTTCATTCTACGCTGTCAATCGCCGCTCGTCGTGCTATAACCTCGTGACCCCTAAGGGC
Take B7: the binding signal with RXRa was 10.1 PBM z-score against 500 random probes; in the data set with VDR:RXRa, 7.15 PBM z-score against 500 random probes; in the data set with RARa:RXRa, 8.32 PBM z-score against 500 random probes; with FXR:RXRa it was 8.88 PBM z-score against 500 random probes; with PPARa:RXRa, 7.21 PBM z-score against 500 random probes; with RARb:RXRa, 5.93 PBM z-score against 500 random probes. The binding signal is 6.73 PBM z-score against 500 random probes with PXR:RXRa; 7.02 PBM z-score against 500 random probes in the data set with LXRa:RXRa; 8.51 PBM z-score against 500 random probes in the data set with RARg:RXRa; 6.15 PBM z-score against 500 random probes with LXRb:RXRa; 10.3 PBM z-score against 500 random probes with PPARg:RXRa.

B8: NRC3_wobSeed117_DR4_A15C_o1 (dsDNA)
DNA 1: GCCGTCAAAGTTCACCTAAGGTAACGTAAAGCACGCGCGATTGACAGCGTAGAATGAAGG
DNA 2: CCTTCATTCTACGCTGTCAATCGCGCGTGCTTTACGTTACCTTAGGTGAACTTTGACGGC
For the molecule B8, the binding signal with THRa:RXRa was 5.54 PBM z-score against 500 random probes.

B9: NRC3_wobSeed117_DR4_C16T_o1 (dsDNA)
DNA 1: GCCGTCAAAGTTCAATTAAGGTAACGTAAAGCACGCGCGATTGACAGCGTAGAATGAAGG
DNA 2: CCTTCATTCTACGCTGTCAATCGCGCGTGCTTTACGTTACCTTAATTGAACTTTGACGGC
Regarding B9, the binding signal in the data set with THRa:RXRa is 5.49 PBM z-score against 500 random probes.

B10: NRC3_wobSeed114_DR4_G17C_o1 (dsDNA)
DNA 1: GCAATACAGGGTCATCCTAGGCCAGAGTACGCACAGGCGATTGACAGCGTAGAATGAAGG
DNA 2: CCTTCATTCTACGCTGTCAATCGCCTGTGCGTACTCTGGCCTAGGATGACCCTGTATTGC
Turning to B10, in the data set with THRa:RXRa, the binding signal was 5.26 PBM z-score against 500 random probes.

B11: NRC3_wobSeed26_DR1_T9A_o1 (dsDNA)
DNA 1: GCTCTAGTAGGTCAAAGGTCACACACTCGAAATGCGGCGATTGACAGCGTAGAATGAAGG
DNA 2: CCTTCATTCTACGCTGTCAATCGCCGCATTTCGAGTGTGTGACCTTTGACCTACTAGAGC
For the molecule B11, the binding signal is 10.5 PBM z-score against 500 random probes with RXRa; 6.79 PBM z-score against 500 random probes with VDR:RXRa; 9.28 PBM z-score against 500 random probes in the data set with RARa:RXRa; 8.25 PBM z-score against 500 random probes with FXR:RXRa; 7.46 PBM z-score against 500 random probes with PPARa:RXRa; 5.79 PBM z-score against 500 random probes with RARb:RXRa. Further, the binding signal is 7.41 PBM z-score against 500 random probes with PXR:RXRa; 7.19 PBM z-score against 500 random probes with LXRa:RXRa; 8.88 PBM z-score against 500 random probes with RARg:RXRa; 6.9 PBM z-score against 500 random probes in the data set with LXRb:RXRa; 14.4 PBM z-score against 500 random probes with PPARg:RXRa.

B12: NRC3_wobSeed109_DR4_T26A_o1 (dsDNA)
DNA 1: GCCGTCCAAGGTCATAGGAGGTCAGAGAAGACAGATGCGATTGACAGCGTAGAATGAAGG
DNA 2: CCTTCATTCTACGCTGTCAATCGCATCTGTCTTCTCTGACCTCCTATGACCTTGGACGGC
In the case of B12, the binding signal with THRa:RXRa is 5.62 PBM z-score against 500 random probes.

B13: NRC3_wobSeed103_DR4_A13C_o1 (dsDNA)
DNA 1: GCGCATATAGGTCATACAAGGTGAAAGTCCGATTGTGCGATTGACAGCGTAGAATGAAGG
DNA 2: CCTTCATTCTACGCTGTCAATCGCACAATCGGACTTTCACCTTGTATGACCTATATGCGC
Consider B13, for which the binding signal with THRa:RXRa was 5.57 PBM z-score against 500 random probes.

B14: NRC3_wobSeed118_DR4_G24A_o1 (dsDNA)
DNA 1: GCTTACCAAGGTGAGCTGAGGTCATTGATCCAACTCGCGATTGACAGCGTAGAATGAAGG
DNA 2: CCTTCATTCTACGCTGTCAATCGCGAGTTGGATCAATGACCTCAGCTCACCTTGGTAAGC
For the molecule B14, in the data set with THRa:RXRa, the binding signal was 5.35 PBM z-score against 500 random probes.

B15: NRC3_wobSeed113_DR4_T8C_o1 (dsDNA)
DNA 1: GCATATGCAGGTTAGCTGGGGTCATTCAGACTAGGCGCGATTGACAGCGTAGAATGAAGG
DNA 2: CCTTCATTCTACGCTGTCAATCGCGCCTAGTCTGAATGACCCCAGCTAACCTGCATATGC
B15: in the data set with THRa:RXRa, the binding signal was 5.52 PBM z-score against 500 random probes.

B16: NRC3_wobSeed113_DR4_G29T_o1 (dsDNA)
DNA 1: GCATATGTAGGTTAGCTGGGGTCATTCATACTAGGCGCGATTGACAGCGTAGAATGAAGG
DNA 2: CCTTCATTCTACGCTGTCAATCGCGCCTAGTATGAATGACCCCAGCTAACCTACATATGC
In the case of B16, the binding signal in the data set with THRa:RXRa was 5.52 PBM z-score against 500 random probes.

B17: NRC3_wobSeed98_DR4_G15A_o1 (dsDNA)
DNA 1: GCACTAGTTGGTCAACTGAGGTCACACACAATTCGGGCGATTGACAGCGTAGAATGAAGG
DNA 2: CCTTCATTCTACGCTGTCAATCGCCCGAATTGTGTGTGACCTCAGTTGACCAACTAGTGC
B17: the binding signal with THRa:RXRa is 5.62 PBM z-score against 500 random probes.

B18: NRC3_wobSeed98_DR4_T8G_o1 (dsDNA)
DNA 1: GCACTAGGTGGTCAGCTGAGGTCACACACAATTCGGGCGATTGACAGCGTAGAATGAAGG
DNA 2: CCTTCATTCTACGCTGTCAATCGCCCGAATTGTGTGTGACCTCAGCTGACCACCTAGTGC
Consider B18, for which the binding signal with THRa:RXRa was 5.35 PBM z-score against 500 random probes.

B19: NRC3_wobSeed101_DR4_C18G_o1 (dsDNA)
DNA 1: GCCCTTACGGGTCACTCGAGGTTATAGCATCGGAGTGCGATTGACAGCGTAGAATGAAGG
DNA 2: CCTTCATTCTACGCTGTCAATCGCACTCCGATGCTATAACCTCGAGTGACCCGTAAGGGC
In the case of B19, the binding signal with THRa:RXRa is 5.34 PBM z-score against 500 random probes.
